Reference: patent publication US20190010193A1 (REALTA, published 2019)
Ends that are not written are not given here.

How the values were obtained:
C1q (human) = C1q (human) (UniProt P02745); assay: cell-based or functional assay
calreticulin = molecular target: T1, calreticulin (UniProt P27797 18-417, limits assumed); assay: plates coated with C1q, calreticulin and BSA, PA peptide added (FIG. 14A)
T1 construct: also called CRT; recombinant calreticulin
T1 sequence (looked up): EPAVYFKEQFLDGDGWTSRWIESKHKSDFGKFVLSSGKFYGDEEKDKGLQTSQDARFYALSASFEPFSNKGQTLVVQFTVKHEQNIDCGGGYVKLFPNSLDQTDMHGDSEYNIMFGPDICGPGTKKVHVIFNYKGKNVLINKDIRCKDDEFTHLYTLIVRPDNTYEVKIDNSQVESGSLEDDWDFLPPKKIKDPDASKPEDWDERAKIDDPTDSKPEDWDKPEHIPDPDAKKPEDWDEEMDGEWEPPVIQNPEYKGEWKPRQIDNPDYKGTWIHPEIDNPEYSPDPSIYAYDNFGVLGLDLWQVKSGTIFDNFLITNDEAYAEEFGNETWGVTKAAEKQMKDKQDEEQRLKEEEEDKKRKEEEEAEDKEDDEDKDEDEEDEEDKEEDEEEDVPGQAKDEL

BSA = molecular target: T2, BSA (UniProt P02769 25-607); assay: as above
T2 construct: Negative control
T2 sequence (P02769 25-607 limits assumed): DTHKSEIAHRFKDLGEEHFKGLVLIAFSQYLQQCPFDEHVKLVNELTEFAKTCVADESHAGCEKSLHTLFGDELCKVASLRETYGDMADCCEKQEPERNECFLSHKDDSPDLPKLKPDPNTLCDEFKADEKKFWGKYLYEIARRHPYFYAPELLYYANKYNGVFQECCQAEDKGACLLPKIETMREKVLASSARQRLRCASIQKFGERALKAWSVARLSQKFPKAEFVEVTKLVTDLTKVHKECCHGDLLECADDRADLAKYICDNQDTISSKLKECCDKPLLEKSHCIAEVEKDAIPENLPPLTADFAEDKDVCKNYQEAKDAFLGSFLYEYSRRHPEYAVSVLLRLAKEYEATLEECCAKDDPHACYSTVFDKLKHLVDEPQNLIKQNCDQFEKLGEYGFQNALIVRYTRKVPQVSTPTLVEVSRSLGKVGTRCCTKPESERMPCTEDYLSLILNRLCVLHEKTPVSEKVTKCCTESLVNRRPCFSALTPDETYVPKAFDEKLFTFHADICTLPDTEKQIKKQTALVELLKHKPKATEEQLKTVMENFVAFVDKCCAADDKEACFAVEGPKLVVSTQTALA

Chain of C1q (human) (P02745 23-245, chain 1 of 3): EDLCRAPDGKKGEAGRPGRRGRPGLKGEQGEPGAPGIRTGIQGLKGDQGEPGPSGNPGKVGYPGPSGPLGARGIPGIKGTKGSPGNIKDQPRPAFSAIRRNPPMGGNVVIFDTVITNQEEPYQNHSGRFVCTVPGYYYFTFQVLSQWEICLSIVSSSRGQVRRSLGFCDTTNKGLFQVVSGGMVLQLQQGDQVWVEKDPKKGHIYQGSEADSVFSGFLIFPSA
Chain of C1q (human) (P02746 28-253, chain 2 of 3, further chain): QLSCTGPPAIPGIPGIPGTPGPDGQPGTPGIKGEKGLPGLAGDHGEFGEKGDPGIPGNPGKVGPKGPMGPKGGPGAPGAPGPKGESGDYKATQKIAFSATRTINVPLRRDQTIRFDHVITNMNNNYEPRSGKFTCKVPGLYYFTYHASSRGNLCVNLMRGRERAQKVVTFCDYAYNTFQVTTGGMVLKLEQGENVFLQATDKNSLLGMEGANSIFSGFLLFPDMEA
Chain of C1q (human) (P02747 29-245, chain 3 of 3, further chain): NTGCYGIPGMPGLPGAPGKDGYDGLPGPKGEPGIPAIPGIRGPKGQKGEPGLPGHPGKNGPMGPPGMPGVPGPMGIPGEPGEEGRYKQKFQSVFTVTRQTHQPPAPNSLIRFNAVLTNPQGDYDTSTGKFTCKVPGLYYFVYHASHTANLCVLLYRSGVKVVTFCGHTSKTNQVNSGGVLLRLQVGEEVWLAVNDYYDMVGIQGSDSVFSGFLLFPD

## IALILEPICCQERAA-dPEG12 (cysteine pairing not given here) [PA-dPEG12]
C1q (human)
  Hemolysis (%), sensitized sheep RBCs, factor B-depleted human serum, peptide 0.77 mM: 11.4%

## IALILEPICCQERAA (also called PA; PIC1) [Polar Assortant peptide]
calreticulin
  binding result: no binding
BSA
  binding result: no binding

## IALILEPICCQERAA-dPEG06 (cysteine pairing not given here) [PA-dPEG06]
C1q (human)
  Hemolysis (%), sensitized sheep RBCs, factor B-depleted human serum, peptide 0.77 mM: 44.8%

## IALILEPICCQERAA-dPEG02 (cysteine pairing not given here) [PA-dPEG02]
C1q (human)
  Hemolysis (%), sensitized sheep RBCs, factor B-depleted human serum, peptide 0.77 mM: 11.6%

## IALILEPICCQERAA-dPEG24 (cysteine pairing not given here) [PA-dPEG24]
C1q (human)
  Hemolysis (%), sensitized sheep RBCs, factor B-depleted human serum, peptide 0.77 mM: 2.99%
  Hemolysis in presence of PA-dPEG24 (Abs 412 nm), plasma of Donor O+ #1 with B+ erythrocytes (0.747 without peptide): 0.008 Abs 412 nm
  inhibition of hemolysis of B erythrocytes by type-O plasma, dose-response (FIG. 8): > 95%

## IALILEPICCQERAA-dPEG16 (cysteine pairing not given here) [PA-dPEG16]
C1q (human)
  Hemolysis (%), sensitized sheep RBCs, factor B-depleted human serum, peptide 0.77 mM: 12%

## IALILEPICCQERAA-dPEG04 (cysteine pairing not given here) [PA-dPEG04]
C1q (human)
  Hemolysis (%), sensitized sheep RBCs, factor B-depleted human serum, peptide 0.77 mM: 12.4%

## IALILEPICCQERAA-dPEG20 (cysteine pairing not given here) [PA-dPEG20]
C1q (human)
  Hemolysis (%), sensitized sheep RBCs, factor B-depleted human serum, peptide 0.77 mM: 11.4%

## IALILEPICCQERAA-dPEG03 (cysteine pairing not given here) [PA-dPEG03]
C1q (human)
  Hemolysis (%), sensitized sheep RBCs, factor B-depleted human serum, peptide 0.77 mM: 12.6%

## IALILEPICCQERAA-dPEG08 (cysteine pairing not given here) [PA-dPEG08]
C1q (human)
  Hemolysis (%), sensitized sheep RBCs, factor B-depleted human serum, peptide 0.77 mM: 34.7%
